The source of these data is paper PMC8569915 (ChemSusChem, 2021).

As a reminder, the stoichiometry N is a count of units in the complex or per binding partner.

This data set concerns the molecule itself. In words: SEC.

B1: [2SCC-(I9CL12C)2] (peptide)
chain: Ac-GIAALEQKCAACEEKNAALEWKIAALEKKG-NH2
modifications: cysteine pairing not given here
B1: the “stoichiometry N” value stood at 2.
